For test [1], the target named is T1, mouse LAG-3 overexpressed on HEK293E cells (mouse, UniProt Q61790 24-521).
T1 construct: whole, on cells; also called HEK293E-mLAG3; mLAG3 (Mouse)
T1 sequence (looked up): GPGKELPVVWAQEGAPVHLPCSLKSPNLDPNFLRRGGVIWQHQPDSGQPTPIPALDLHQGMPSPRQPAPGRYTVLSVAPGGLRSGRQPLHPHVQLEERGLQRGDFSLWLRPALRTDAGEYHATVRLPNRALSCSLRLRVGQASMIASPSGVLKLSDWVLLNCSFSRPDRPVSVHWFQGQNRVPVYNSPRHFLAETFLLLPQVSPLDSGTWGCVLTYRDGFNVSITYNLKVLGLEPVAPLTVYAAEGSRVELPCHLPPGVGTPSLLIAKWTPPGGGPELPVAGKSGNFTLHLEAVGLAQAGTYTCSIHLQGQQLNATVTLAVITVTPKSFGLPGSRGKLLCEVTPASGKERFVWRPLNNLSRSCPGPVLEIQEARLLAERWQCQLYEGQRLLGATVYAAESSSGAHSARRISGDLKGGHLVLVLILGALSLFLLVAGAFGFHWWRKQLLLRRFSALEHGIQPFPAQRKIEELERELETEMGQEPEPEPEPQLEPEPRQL
As to the kind of experiment: flow cytometry, HEK293E cells overexpressing mouse LAG-3. On the procedure:
(§1) After that, the cells were washed three times with PBS containing 2% FBS and then subjected to the reaction for 30 minutes at 4° C. with anti-human IgG antibody (#FI-3000, Vectorlabs) linked with FITC fluorescent. The cells were washed by the same washing process as above followed by suspension in 0.2 ml PBS containing 2% FBS. The cells were then analyzed by FACSCanto II flow cytometer.

The target of test [2] is T2, monkey (Rhesus monkey) LAG-3 overexpressed on HEK293E cells (Rhesus monkey, UniProt A0A5F8A874 23-533).
T2 construct: whole, on cells; also called HEK293E-MrhLAG3; MrhLAG3 (Rhesus Monkey)
T2 sequence: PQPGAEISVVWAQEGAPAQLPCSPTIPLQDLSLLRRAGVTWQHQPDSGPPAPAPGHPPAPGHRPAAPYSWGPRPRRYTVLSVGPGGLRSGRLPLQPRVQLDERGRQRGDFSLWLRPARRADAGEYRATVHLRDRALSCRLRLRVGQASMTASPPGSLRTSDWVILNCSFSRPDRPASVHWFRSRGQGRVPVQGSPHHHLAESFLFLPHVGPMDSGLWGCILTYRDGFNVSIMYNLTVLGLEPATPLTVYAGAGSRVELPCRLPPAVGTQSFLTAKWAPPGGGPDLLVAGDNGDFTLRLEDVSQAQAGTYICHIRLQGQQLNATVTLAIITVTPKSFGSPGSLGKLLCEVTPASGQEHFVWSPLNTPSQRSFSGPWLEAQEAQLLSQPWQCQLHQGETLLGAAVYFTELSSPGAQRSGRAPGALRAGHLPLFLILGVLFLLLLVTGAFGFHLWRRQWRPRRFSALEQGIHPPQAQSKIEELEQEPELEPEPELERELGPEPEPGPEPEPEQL
The test is described as follows: flow cytometry, HEK293E cells overexpressing monkey LAG-3. On the procedure:
as §1

Here are results for 1 molecule from patent US20210238283A1 (Y BIOLOGICS, published 2021).

B1: human anti-LAG-3 monoclonal antibody 1E09 (antibody, V domains shown)
VH: QVQLVQSGGDLVKPGGSLRLSCAASGFSFSDHYMNWIRQAPGKGLEWVAYIDTSATYIYYADSVKGRFTISRDNAKNSLYLQMNSLRAEDTAVYYCARDNWGSLDYWGQGALVTVSS
VL: DIQMTQSPSSLSPSVGDRVTITCQASQEISIYLNWYQQKPGKAPKLLIYDASNLETGVPSRFSGSGSGTDFTLTISSLQPEDFATYYCQQTYITPYTFGQGTKLDIK
notes: Tested as full IgG converted from scFv; also called LAG-3-1E09; Parent (1E09)
For B1, the half-maximal effective concentration (EC50) in test [1] worked out at 1.5 µg/mL; in test [2], 0.246 µg/mL.
